Measured values as given in US20180086836A1 (GLENMARK PHARMACEUTICALS S A, published 2018).

Experiments:
[1] = target: T1, recombinant human N-terminal CCR6 Fc (human); assay: direct ELISA, Fc fusion coated at 2 µg/ml, anti-human F(ab')2-HRP
T1 construct: also called human CCR6-Fc; hsCCR6-Nter-Fc
Description: (§1) FIG. 8: Direct binding ELISA on immobilized recombinant human N-terminal CCR6 Fc. Binding of humanized 4H11 H5L1 antibody on human N terminus fragment of CCR6 was measured by direct ELISA. Various concentrations (ranging from 10 to 0.00006 μg/ml) of humanized 4H11 H5L1 in IgG1 and IgG4HS backbones were incubated with 2 μg/ml of either recombinant human N terCCR6-Fc tagged protein (FIG. 8A) or recombinant cynomologus N-terminal peptide Fc (FIG. 8B), coated overnight at 4° C. in a 96-well plate. Binding of humanized 4H11 H5L1 antibody to Nter CCR6-Fc protein was detected by horseradish peroxidase (HRP)-conjugated anti-human (Fab)′2-specific antibody.
(§2) A binding ELISA was performed to test the reactivity of 4H11 VH5/VL1 IgG1 and 4H11 VH5/VL1 IgG4HS antibodies on peptides consisting of the N-terminal region of CCR6 from human and cynomologus species. Briefly, 96 well-microtiter plates (Costar USA, distributor VWR AG, Nyon, Switzerland) were coated with 100 μl of recombinant human and cynomologus N-terminus peptide-Fc at 2 μg/ml in PBS. Plates were incubated overnight at 4° C. and were then blocked with PBS 2% BSA (Bovine Serum Albumine, PAA Laboratories, Pasching, Austria) at room temperature (RT) for one hour. The blocking solution was removed and various concentrations of 4H11 VH5/VL1 IgG1 and 4H11 VH5/VL1 IgG4HS were added. The plates were incubated at RT for 1 hour, then washed six times with PBS 0.01% Tween-20 (Sigma-Aldrich Chemie GmbH, Buchs, Switzerland) and a goat-anti human Ig F(ab′)2 fragment specific-HRP (Jackson ImmunoResearch Europe Ltd, Newmarket, UK). After washing, the plates were incubated with TMB substrate (Bio-Rad Laboratories AG, Reinach, Switzerland) to reveal antibody binding. The reaction was stopped by adding 2M H₂SO₄ and the optical density was read at 450 nm (OD 450 nm) on a Synergy HT2 spectrophotometer (Biotek, USA; distributor: WITTEC AG, Littau, Switzerland).

[2] = target: T2, recombinant cynomologus N-terminal CCR6 peptide Fc (cynomolgus monkey; human); assay: as above
T2 construct: It differs from the human construct only in the CCR6 N-terminus; also called Cyno CCR6-Fc; cynoCCR6-Nter-Fc
Description: as §1, §2

[3] = target: T1, recombinant human N-terminal CCR6 Fc; assay: SPR (BIAcore 2000), Fc-fused peptide immobilized on CM5 chip, antibody as analyte, bivalent analyte model
Description: (§3) Kinetic binding affinity constants (KD) were measured on Fc-fused huCCR6 N-terminal and cynoCCR6 N-terminal peptides with the 4H11 VH5/VL1 IgG4hs antibody as analyte. Same measurements were performed using the 4H11 VH5/VL1 IgG1 antibody and chimeric 4H11 antibody for comparison. Measurements were conducted on a BIAcore 2000 (GE Healthcare—BIAcore, GE Healthcare Europe GmbH, Glattbrugg, Switzerland) at room temperature, and analyzed with the BiaEvaluation software (BIAcore; v4.1, GE Healthcare Europe GmbH) using a bivalent analyte kinetic affinity model.
(§4) A CM5 research grade sensor chip (GE Healthcare Europe GmbH; ref. BR-1000-14) was activated by injecting 35 μl of a 1:1 N-hydroxysulfosuccinimide (NHS)/1-Ethyl-3-[3-dimethylaminopropyl]carbodiimide Hydrochloride (EDC) solution (v/v; 5 μl/min flow-rate; on flow paths 1 and 2). Fc-fused human or cynomologus CCR6 N-terminal peptides were diluted to a final concentration of 25 nM in acetate buffer pH 4.5 (GE Healthcare Europe GmbH, BR-1003-50; one pH unit below pI) and subsequently immobilized on the previously activated CM5 sensor chip by injecting 20 μl on both flow path 1 and 2 (5 μl/min); this corresponded to approximately 300 response units (RUs). The human or cynomologus CCR6 N-terminal peptides coupled CM5 sensor chip was then deactivated by injecting 35 μl of ethanolamine solution (5 μl/min). […]

[4] = target: T2, recombinant cynomologus N-terminal CCR6 …; assay: as above
Description: as §3, §4

[5] = target: T1, recombinant human N-terminal CCR6 Fc; assay: SPR (BIAcore 2000), Fc-fused human CCR6 N-terminal peptide immobilised on CM5, antibody as analyte, bivalent analyte model
Description: as §3, §4

[6] = target: T2, recombinant cynomologus N-terminal CCR6 …; assay: SPR (BIAcore 2000), Fc-fused cynomolgus CCR6 N-terminal peptide immobilised on CM5, antibody as analyte, bivalent analyte model
Description: as §3, §4

[7] = target: T3, human CCR6 (human, UniProt P51684 1-374); assay: flow cytometry blocking assay on CCR6-transfected BAF cells; blocked ligand: recombinant human CCL20 at 0.5 µg/ml, detected with biotinylated anti-CCL20 and streptavidin-APC
T3 construct: Full length human CCR6 on transfected BAF or CHO cells, or native on human PBMCs; also called hsCCR6; CCR6 receptor
T3 sequence: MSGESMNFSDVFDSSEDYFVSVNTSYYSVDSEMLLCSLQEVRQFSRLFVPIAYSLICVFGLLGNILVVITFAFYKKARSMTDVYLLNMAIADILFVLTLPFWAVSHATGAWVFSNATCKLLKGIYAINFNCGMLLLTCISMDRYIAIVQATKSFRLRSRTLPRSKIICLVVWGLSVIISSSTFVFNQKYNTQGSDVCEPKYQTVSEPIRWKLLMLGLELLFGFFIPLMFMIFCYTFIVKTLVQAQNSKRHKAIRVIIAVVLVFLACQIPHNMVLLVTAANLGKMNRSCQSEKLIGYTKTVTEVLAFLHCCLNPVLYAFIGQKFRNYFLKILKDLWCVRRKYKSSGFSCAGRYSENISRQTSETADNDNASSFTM
Description: Cells transfected with CCR6 were incubated at 4° C. for 20 minutes with humanized 4H11-VH5/VL1 serially diluted (from 100 to 0.00001 μg/ml) in FACS buffer containing 0.1% of azide. Cells were centrifuged and incubated at 4° C. for 20 minutes with 0.5 μg/ml of recombinant human CCL20. To detect CCL20 bound to CCR6, cells were incubated with a biotinylated goat anti-human CCL20, followed by incubation with Allophycocyanin (APC)-labelled Streptavidin diluted at 1/100 in FACS buffer containing 0.1% of azide. To evaluate blocking potential of humanized 4H11 VH5/VL1 IgG4HS, percentage of CCL20 was measured at each concentration of antibody. Maximum binding activity of CCL20 to CCR6 was calculated as a percentage of that seen for the isotype control.
To determine whether 4H11 VH5/VL1 IgG4HS neutralizes CCR6-mediated biological function through a direct inhibition of CCL20-CCR6 interaction, an assay using flow cytometry approach was set up. Briefly, BAF cells transfected with CCR6 were counted and diluted at 1*10⁶ cells/ml in FACS buffer containing 0.1% of azide. […] Then, CCL20 was detected using a biotinylated anti-human CCL20 (R&D Systems, clone BAF360) followed by allophycocyanin (APC)-labelled streptavidin diluted in FACS buffer+0.1% azide at 1 μg/ml and 1/100, respectively. Cells were washed two times in FACS buffer, 0.1% azide and samples were analysed by flow cytometry. […]

B1: 4H11 VH5/VL1 IgG4HS antibody (antibody, V domains shown)
VH: EVQLVESGGGLVQPGGSLRLSCAASGFSFSDYYMYWVRQAPGKGLEWVSYITNGGITYYPDSVKGRFTISRDNSKNTLYLQMNSLRAEDTAVYYCTSPLRGAWFAYWGQGTLVTVSS
VL: DVVMTQSPLSLPVTLGQPASISCRSSQSIVHSNGNTYLEWYQQRPGQSPRLLIYKVSNRFSGVPDRFSGSGSGTDFTLKISRVEAEDVGVYYCFQGSHVPLTFGQGTKLEIK
notes: also called humanized 4H11 H5L1 IgG4HS; humanized 4H11-VH5/VL1
**Q.** What does the source list for B1?
**A.** EC50 (read off the curve) [1]: ~0.06 µg/mL; EC50 (read off the curve) [2]: ~0.2 µg/mL; Kd [3]: 1.56 nM; Kd [4]: 4.67 nM; koff [5]: 0.000798 s⁻¹; kon [5]: 510000 M⁻¹ s⁻¹; koff [6]: 0.0015 s⁻¹; kon [6]: 320000 M⁻¹ s⁻¹; IC50 (read off the curve) [7]: ~0.5 µg/mL
